The record followed here is article PMC12561925.

In test [1] the target is MHV68 gL-gH fusion protein (gL-Linker-gH-Linker-His6) (murine gammaherpesvirus 68 (MHV68)). As to the kind of experiment: ELISA; MHV68 gL-gH fusion protein coated at 2.5 μg/ml in PBS on Maxisorp plates; soluble dimeric Eph-Fc proteins 2 h at room temperature in 1% BSA in PBS; detected with HRP-conjugated ProteinG; OD 450 nm; four-parameter dose-response fit. On the technique in general: ELISA stands for enzyme-linked immunosorbent assay.

The target is the same in test [2].

Regarding “recombinant soluble murine EphA4 Fc fusion protein (from UniProt Q03137-1 20-547)”, the EC50 – broadly, the midpoint of the concentration-response curve – in test [1] turned out to be 3.6 nM. In addition, the reduction of MHV68 ORF59-GFP infection of the murine endothelial cell line SVEC4-10 after pre-incubation of the virus with 100 nM homodimerized mEphA4-Fc in test [2] was found to be 25%.

B1: recombinant soluble murine EphB3 Fc fusion protein (Fc fusion)
chain: LEETLMDTKWVTSELAWTSHPESGWEEVSGYDEAMNPIRTYQVCNVRESSQNNWLRTGFIWRREVQRVYVELKFTVRDCNSIPNIPGSCKETFNLFYYEADSDVASASSPFWMENPYVKVDTIAPDESFSRLDAGRVNTKVRSFGPLSKAGFYLAFQDQGACMSLISVRAFYKKCASTTAGFALFPETLTGAEPTSLVIAPGTCIANAVEVSVPLKLYCNGDGEWMVPVGACTCATGHEPAAKESQCRACPPGSYKAKQGEGPCLPCPPNSRTTSPAASICTCHNNFYRADSDSADSACTTVPSPPRGVISNVNETSLILEWSEPRDLGGRDDLLYNVICKKCRGSSGAGGPATCSRCDDNVEFVPRQLGLTERRVHISHLLAHTRYTFEVQAVNGVSGKSPLPPRYAAVNITTNQAAPSEVPTLHLHSSSGSSLTLSWAPPERPNGVILDYEMKYFEKSKGIASTVTSQKNSVQLDGLQPDARYVVQVRARTVAGYGQYSHPAEFETTSERGSGAQQLQEQLPL
As to B1, the EC50 in test [1] is 2.3 nM. For the same molecule, the inhibition of MHV68 ORF59-GFP infection of human fibroblasts (HFF) and endothelial cells (TIME) after pre-incubation of the virus with 100 nM homodimerized mEphB3-Fc in test [2] came to 30%.
